Several values for one entry are separate records, joined by “and”; a condition that tells them apart may be missing. Equal values may be shown once.

Some targets named below: TNS3 SH2 domain (human) (UniProt Q68CZ2); GRAP2 SH2 domain (human) (UniProt O75791); ITK SH2 domain (human) (UniProt Q08881); BCAR3 SH2 domain (human) (UniProt O75815); ABL2 SH2 domain (human) (UniProt P42684); NCK1 SH2 domain (human) (UniProt P16333); GRB10 SH2 domain (human) (UniProt Q13322); FGR SH2 domain (human) (UniProt P09769); SH2B3 SH2 domain (human) (UniProt Q9UQQ2); SRC SH2 domain (human) (UniProt P12931); GRB7 SH2 domain (human) (UniProt Q14451).

Common to all, as to experiment: peptide or protein array; SH2/PTB proteins spotted on aldehyde slides, rhodamine peptide titrated in buffer B (20 mM HEPES, 100 mM KCl, 0.1% Tween-20, 5 mM DTT, pH 7.8), 1 h at room temperature; replicate assays
In assay [1] the target is ZAP70 tandem SH2 domains (human).
Assay [2] concerns the target RASA1 N-terminal SH2 domain (human) (UniProt P20936).
For assay [3], the target named is SYK C-terminal SH2 domain (human).
In assay [4] the target is SYK tandem SH2 domains (human).
In assay [5] the target is SH2D3C SH2 domain (human) (UniProt Q8N5H7).
The target of assay [6] is SYK N-terminal SH2 domain (human).
Assay [7] deals with SH2D1B SH2 domain (human) (UniProt O14796).
Assay [8] deals with ZAP70 C-terminal SH2 domain (human) (UniProt P43403).
Assay [9] concerns the target PLCG2 tandem SH2 domains (human).

Chain of ABL2 SH2 domain (human) (P42684 173-263): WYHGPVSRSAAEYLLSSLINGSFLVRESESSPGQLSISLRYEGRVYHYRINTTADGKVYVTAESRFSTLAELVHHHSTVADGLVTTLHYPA
Chain of BCAR3 SH2 domain (human) (O75815 154-253): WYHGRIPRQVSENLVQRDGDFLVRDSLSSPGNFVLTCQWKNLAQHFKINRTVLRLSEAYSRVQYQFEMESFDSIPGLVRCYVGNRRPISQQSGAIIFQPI
Chain of ITK SH2 domain (human) (Q08881 239-338): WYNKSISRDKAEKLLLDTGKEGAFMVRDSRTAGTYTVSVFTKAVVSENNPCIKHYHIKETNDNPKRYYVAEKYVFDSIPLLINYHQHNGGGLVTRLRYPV
Chain of GRAP2 SH2 domain (human) (O75791 58-149): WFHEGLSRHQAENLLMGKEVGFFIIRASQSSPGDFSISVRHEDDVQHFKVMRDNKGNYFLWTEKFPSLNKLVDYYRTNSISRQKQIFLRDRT
Chain of SH2D3C SH2 domain (human) (Q8N5H7 220-319): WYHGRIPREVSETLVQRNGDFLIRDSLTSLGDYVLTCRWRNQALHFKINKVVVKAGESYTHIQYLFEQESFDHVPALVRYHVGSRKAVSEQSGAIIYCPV
Chain of RASA1 N-terminal SH2 domain (human) (P20936 whole entry, the tested form may be a part): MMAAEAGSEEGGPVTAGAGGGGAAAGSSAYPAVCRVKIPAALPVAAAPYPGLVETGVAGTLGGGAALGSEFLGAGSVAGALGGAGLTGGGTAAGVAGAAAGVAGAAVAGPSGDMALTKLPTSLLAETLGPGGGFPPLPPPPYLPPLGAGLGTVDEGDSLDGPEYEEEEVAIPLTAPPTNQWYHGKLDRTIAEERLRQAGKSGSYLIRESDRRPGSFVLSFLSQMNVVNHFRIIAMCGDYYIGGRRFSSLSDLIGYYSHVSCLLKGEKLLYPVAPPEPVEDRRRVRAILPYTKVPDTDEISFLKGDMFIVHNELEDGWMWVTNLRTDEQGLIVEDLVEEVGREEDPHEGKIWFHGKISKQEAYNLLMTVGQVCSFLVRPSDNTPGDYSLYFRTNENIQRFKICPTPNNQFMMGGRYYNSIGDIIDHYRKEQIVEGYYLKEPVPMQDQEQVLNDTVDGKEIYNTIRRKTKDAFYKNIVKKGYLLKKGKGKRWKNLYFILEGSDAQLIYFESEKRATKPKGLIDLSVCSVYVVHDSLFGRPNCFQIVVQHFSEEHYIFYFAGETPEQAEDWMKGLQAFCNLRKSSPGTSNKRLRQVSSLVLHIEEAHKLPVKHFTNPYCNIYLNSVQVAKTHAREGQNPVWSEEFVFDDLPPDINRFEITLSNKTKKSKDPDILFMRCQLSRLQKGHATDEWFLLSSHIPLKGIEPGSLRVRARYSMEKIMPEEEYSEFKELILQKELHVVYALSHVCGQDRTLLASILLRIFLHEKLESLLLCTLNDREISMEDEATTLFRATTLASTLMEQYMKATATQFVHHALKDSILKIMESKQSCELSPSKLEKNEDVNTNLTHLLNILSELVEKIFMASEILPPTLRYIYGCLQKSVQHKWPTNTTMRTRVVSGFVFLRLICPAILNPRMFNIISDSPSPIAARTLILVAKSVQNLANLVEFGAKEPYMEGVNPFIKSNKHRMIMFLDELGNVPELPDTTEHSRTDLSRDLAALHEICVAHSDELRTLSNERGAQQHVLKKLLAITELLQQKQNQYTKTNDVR
Chain of TNS3 SH2 domain (human) (Q68CZ2 1172-1282): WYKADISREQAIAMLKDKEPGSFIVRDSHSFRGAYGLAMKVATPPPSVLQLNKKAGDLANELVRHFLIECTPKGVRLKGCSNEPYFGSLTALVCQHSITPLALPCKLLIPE
Chain of GRB7 SH2 domain (human) (Q14451 431-527): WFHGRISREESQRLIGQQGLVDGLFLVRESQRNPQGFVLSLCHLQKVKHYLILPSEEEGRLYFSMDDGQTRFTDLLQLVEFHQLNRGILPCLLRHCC
Chain of GRB10 SH2 domain (human) (Q13322 493-574): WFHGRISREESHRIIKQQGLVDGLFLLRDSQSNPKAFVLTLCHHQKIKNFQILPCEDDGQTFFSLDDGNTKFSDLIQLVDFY
Chain of SH2D1B SH2 domain (human) (O14796 5-101): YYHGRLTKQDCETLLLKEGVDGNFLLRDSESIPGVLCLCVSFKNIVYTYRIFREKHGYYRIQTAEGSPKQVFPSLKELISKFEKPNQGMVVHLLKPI
Chain of ZAP70 C-terminal SH2 domain (human) (P43403 whole entry, the tested form may be a part): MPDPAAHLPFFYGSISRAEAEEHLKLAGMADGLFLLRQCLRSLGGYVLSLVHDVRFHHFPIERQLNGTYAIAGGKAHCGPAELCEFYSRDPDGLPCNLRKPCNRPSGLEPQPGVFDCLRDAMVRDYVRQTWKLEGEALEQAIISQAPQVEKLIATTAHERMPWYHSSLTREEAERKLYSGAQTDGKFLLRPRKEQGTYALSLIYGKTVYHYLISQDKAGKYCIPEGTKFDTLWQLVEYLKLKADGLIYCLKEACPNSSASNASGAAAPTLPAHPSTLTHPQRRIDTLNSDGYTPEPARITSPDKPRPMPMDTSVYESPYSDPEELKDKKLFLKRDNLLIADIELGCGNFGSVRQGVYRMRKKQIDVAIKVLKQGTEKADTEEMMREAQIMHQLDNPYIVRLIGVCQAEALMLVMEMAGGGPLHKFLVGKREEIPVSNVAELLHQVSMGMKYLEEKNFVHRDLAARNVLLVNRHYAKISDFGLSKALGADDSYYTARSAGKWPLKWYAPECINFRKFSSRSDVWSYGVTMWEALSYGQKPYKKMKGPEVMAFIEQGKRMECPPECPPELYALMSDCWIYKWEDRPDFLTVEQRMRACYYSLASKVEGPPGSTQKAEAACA
Chain of SH2B3 SH2 domain (human) (Q9UQQ2 364-462): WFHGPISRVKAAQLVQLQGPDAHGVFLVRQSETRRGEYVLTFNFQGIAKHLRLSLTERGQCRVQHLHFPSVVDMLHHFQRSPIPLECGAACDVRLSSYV

For the substance “ErbB4 pY1262 phosphopeptide, rhodamine-labelled, for protein microarrays”, the dissociation constant Kd (usually a measure of binding affinity in units of concentration) is 2710 nM and 1630 nM in assay [1]; 373 nM and 742 nM with TNS3 SH2 domain (human); 808 nM and 1360 nM with GRAP2 SH2 domain (human); 401 nM and 802 nM in the assay with ITK SH2 domain (human); 610 nM and 1170 nM with BCAR3 SH2 domain (human); 299 nM and 596 nM in [2]. Moreover, the Kd in [3] was 408 nM; in [4], 164 nM and 649 nM; in assay [5], 1440 nM and 1160 nM; in [6], 319 nM and 593 nM; with ABL2 SH2 domain (human), 60.6 nM and 306 nM; in assay [7], 612 nM. Moreover, the Kd with NCK1 SH2 domain (human) is 574 nM and 643 nM; with GRB10 SH2 domain (human), 1500 nM; in [8] it was 588 nM; with FGR SH2 domain (human), 201 nM and 401 nM; in the assay with SH2B3 SH2 domain (human), 1630 nM; with SRC SH2 domain (human), 403 nM and 2100 nM. The Kd was 126 nM and 381 nM in assay [9]; 341 nM in the assay with GRB7 SH2 domain (human).

The values above are taken from article PMC3433420.
